Experiments:
[1] = biological target: phosphorylated Nedd4-2^186–975 (human) (UniProt Q96PU5); test: SEC-SAXS; Superdex 200 Increase 5/150 GL, 20 mM Tris-HCl pH 7.5, 150 mM NaCl, 1 mM TCEP, 3% glycerol, 293.15 K; loaded 2.2 mg/ml Nedd4-2^186–975, 2 mg/ml 14-3-3η, 8.9 mg/ml complex (1:2, 60 μM)
[2] = biological target: phosphorylated Nedd4-2^186–975 (human) (UniProt Q96PU5); test: AUC; sedimentation velocity, 20 °C, 50 mM Tris-HCl pH 8.0, 500 mM NaCl, 1 mM TCEP, 0.01% NP-40; 3 μM pNedd4-2^186–975 alone, 6 μM 14-3-3η alone, mixtures 1:1 and 1:2; 300 nM pNedd4-2^186–975 with 0.06−6 μM 14-3-3η; apparent KD, sw isotherm and Lamm-equation modelling, 14-3-3η dimer + one pNedd4-2

Chain of phosphorylated Nedd4-2^186–975 (human) (Q96PU5 186-975): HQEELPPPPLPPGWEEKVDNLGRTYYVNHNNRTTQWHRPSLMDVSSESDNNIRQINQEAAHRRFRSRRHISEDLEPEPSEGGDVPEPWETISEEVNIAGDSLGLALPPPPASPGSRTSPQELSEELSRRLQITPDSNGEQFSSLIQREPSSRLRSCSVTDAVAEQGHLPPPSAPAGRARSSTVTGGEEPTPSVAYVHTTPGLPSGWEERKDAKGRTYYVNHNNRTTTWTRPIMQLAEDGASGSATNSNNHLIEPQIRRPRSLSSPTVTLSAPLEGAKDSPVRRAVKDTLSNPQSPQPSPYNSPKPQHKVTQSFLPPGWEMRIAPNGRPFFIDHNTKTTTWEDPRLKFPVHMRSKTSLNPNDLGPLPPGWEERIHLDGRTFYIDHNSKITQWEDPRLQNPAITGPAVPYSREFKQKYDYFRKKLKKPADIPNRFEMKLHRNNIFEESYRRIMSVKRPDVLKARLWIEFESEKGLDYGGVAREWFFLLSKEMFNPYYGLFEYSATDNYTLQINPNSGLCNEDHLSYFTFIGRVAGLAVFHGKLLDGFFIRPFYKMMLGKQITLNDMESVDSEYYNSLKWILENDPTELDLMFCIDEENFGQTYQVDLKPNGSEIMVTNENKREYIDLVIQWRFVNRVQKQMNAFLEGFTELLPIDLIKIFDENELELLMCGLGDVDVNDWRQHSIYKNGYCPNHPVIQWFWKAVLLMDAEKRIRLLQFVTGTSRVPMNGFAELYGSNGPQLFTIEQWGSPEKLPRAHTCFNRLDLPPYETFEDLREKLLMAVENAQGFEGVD

stoichiometry N (14-3-3η protomers per Nedd4-2 protomer) [1]: 2
Kd [2]: < 50 nM
stoichiometry N (14-3-3η protomers per Nedd4-2 protomer) [2]: 2
Substance: 14-3-3η (from UniProt Q04917 1-246) (natural protein)

Reference: publication PMC8298602, “14-3-3-protein regulates Nedd4-2 by modulating interactions between HECT and WW domains” (Communications Biology, 2021)
